Measurements reported in patent US20160228563A1 (USTAV ORGANICKE CHEMIE A BIOCHEMIE AKADEMIE VED CR V V I, published 2016).
Square brackets hold non-standard residues; d marks the D form. * marks the point of attachment. 1Nal = N[C@@H](Cc1cccc2ccccc12)C(=O)O; Stearoyl = CCCCCCCCCCCCCCCCCC(=O)*; Palmitoyl = CCCCCCCCCCCCCCCC(=O)*; Nle = CCCC[C@H](N)C(=O)O

T1: rat PrRP receptor (GPR10) in RC-4B/C rat pituitary cells (rat, UniProt Q64121 1-370)
T1 construct: whole, on cells; receptor as expressed by RC-4B/C cells (ATCC); also called rat receptor; rat RC-4B/C cell receptor
T1 sequence (looked up): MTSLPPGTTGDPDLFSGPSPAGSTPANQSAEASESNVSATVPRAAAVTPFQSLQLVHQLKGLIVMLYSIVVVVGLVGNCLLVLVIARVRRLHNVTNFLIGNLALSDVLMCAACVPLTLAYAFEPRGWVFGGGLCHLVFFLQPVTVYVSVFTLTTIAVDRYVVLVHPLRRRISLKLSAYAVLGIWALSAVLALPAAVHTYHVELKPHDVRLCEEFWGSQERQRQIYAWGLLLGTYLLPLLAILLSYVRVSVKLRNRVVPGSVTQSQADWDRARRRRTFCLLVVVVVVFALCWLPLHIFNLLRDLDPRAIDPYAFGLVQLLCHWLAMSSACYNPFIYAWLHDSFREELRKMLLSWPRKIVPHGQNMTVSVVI

T2: human PrRP receptor GPR10 transfected in CHO cells (human, UniProt P49683 1-370)
T2 construct: whole, on cells; also called GPR10 human receptor; human GPR10 receptor
T2 sequence (looked up): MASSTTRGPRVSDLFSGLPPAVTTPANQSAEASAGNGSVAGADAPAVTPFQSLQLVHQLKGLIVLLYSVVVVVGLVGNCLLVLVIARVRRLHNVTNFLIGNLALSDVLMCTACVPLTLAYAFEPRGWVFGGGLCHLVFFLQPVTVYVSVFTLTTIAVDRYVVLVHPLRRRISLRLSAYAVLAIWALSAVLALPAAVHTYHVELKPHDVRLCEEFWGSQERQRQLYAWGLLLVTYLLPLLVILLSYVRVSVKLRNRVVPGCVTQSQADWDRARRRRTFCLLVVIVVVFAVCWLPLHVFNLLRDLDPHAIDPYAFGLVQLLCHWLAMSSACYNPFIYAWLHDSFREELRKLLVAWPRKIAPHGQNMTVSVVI


Assays:
[1] = molecular target: T1, rat PrRP receptor (GPR10) in RC-4B/C …; test: 125I-rat PrRP31 displacement, RC-4B/C cells
Experimental: (§1) Competitive binding experiments were performed according to Motulsky and Neubig (Motulsky, A., et al., “Analyzing radioligand binding data,” Curr Protoc Neurosci, Chapter 7, Unit 7.5, 2002). Binding experiments were conducted with rat pituitary cells, and with Chinese Hamster Ovary (CHO) cells as follows:
The rat pituitary cell line RC-4B/C (ATCC, Manassas, USA) was grown on 24-well plates which had their bottom coated with polyethyleneimine. The cells were grown to the optimal density of 300-450 thousand cells per well.
(§2) Plates were incubated for 60 minutes at room temperature. After incubation, the cells were solubilized in 0.1 mol/l solution of NaOH, and the radioactivity bound to the cells was counted using a γ-counter. The experiments were performed in duplicate, and repeated at least three times.

[2] = molecular target: T2, human PrRP receptor GPR10 transfected …; test: 125I-human PrRP31 displacement, CHO-GPR10 cells
Experimental: as §1
CHO cells transfected with human PrRP receptor GPR10 (Perkin Elmer, USA) were grown on 24-well plates coated with polyethyleneimine. The cells were grown to the optimal density of 40-80 thousand cells per well.
as §2

Row | % of PrRP31 [1] [%] | % of PrRP31 [2] [%] | Binder
1 | 111 |  | Palmitoyl-SRAHQHS[Nle]ETRTPDINPAWYTGRGIRPVGR[1Nal]-NH2 [PrRP analog no. 12]
2 |  | 7 | Stearoyl-SRAHQHS[Nle]ETRTPDINPAWYTGRGIRPVGRF-NH2 [PrRP analog no. 9]
